Results on 41 sequences are retold here after the nanobody polyreactivity screen of Harvey et al. (2022).

The series is described as follows: yeast display, Sf9 membrane polyspecificity reagent, FACS + sequencing; frameworks hold sequencing errors. The gist of the method: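 Synthetic nanobody libraries on Saccharomyces cerevisiae BJ5465 were galactose-induced for 36–48 hours, stained 1 hour at 4 °C with 10% biotinylated, detergent-solubilized Sf9 membrane reagent and enriched on streptavidin microbeads. FACS then separated cells into low and high (top ~1%) gates by anti-HA (expression) and streptavidin (reagent binding) fluorescence. Genes were colony-PCR amplified, MiSeq 2 × 250 sequenced and CDR-length filtered. A clone's polyreactivity label is that of its gate of origin.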
Turning to “QVQLVESGGGLVQAGGSLRLSSAASGLNFQRNTMGWSRQAPVKERELVAAISRSGGSTYYADSVKGRFTISRDNAKNTVYLQMNSLKPEDTAVYYCAALIFRHRGKDDDYWGQGTQVTVSS”, the “polyreactivity (PSR sort gate)” value is listed as “high polyreactivity”.
As to “QVQLVESGGGLVQAGGSLRLSCAPSGSIFGGYAMGWYRQAPGKERELVAAITWGGGSTYYADSVKGRFTISRDNAKNTVYLQMISLKPEATAVYYCAADRSWYDWEDDYWGQGTQVTVSS”, the “polyreactivity (PSR sort gate)” value was “low polyreactivity”.
Turning to “QVQLVESGGGLVQAGGSLRVSCAASGSTFYEYAMGWYRQAPGKERELVAAITRGGTTYYADSVKGRFTISRDNAKNTDYYQMNSLKPEDTAVYYCAARTRGFTKLGYWGQGTQVTVSS”, the “polyreactivity (PSR sort gate)” value is reported as “high polyreactivity”.
On to “QVHLVESGGGLVQAGGSLRLSCAASGFTCGYNAMGWYRQAPGKETELVATICGGGRTKYADSVKGRFTLSRDNAKNTVYLQMNSLKPEDTAVYYCNVVQTYYRGSYIYIKYGYWGQGTQVTVSS”, for which the “polyreactivity (PSR sort gate)” value is on record as “high polyreactivity”.
“QVHLVESGGGLVQAGGSLRLSCAASGGIFLENAMGWYRQAPGKERELVAAISYNGGRTYYADSVKGRFTISRDNAKNTVYLQMNSLKPEDTAVYYCNAASPYYDSWGQGTQVTVSS”: the “polyreactivity (PSR sort gate)” value is “high polyreactivity”.
For “QDQLVESGVGLVQAGGSLRLSCASSGRIFDPYAMGWYRQAPGKERELVARITWRGGRTYYADSVKVRFTISLDNAKNTVYLQMNSLKPEDTAVFYCNADFYYRYYCAYDYWGQGTQVTVSS”, the “polyreactivity (PSR sort gate)” value is “high polyreactivity”.
Take “QVQLVESGGGLVQAGGSLRLSCAASGSTFKPYTMGWYRQAPGKERELVAGISSVDSTYYADSVKGRFTISRDNAKNTVYLQMNSLKPEDTAVYYCNKRKWPTFTYAMNYWGQGTQVTVSS”: the “polyreactivity (PSR sort gate)” value is “low polyreactivity”.
As to “QVQLVESGGGLVQAGGSLRLSCAASGITFGRNTMGWYRQAPGNERELVAAIDSGGNTYADSVKGRFTISRDNAKNTFYLQMNSLKPEDTAVYYCCVDGGEFSSYGYWGQGTQVTVSS”, the “polyreactivity (PSR sort gate)” value is recorded as “low polyreactivity”.
Next, “QVQLVESGGGLVQAGGSLRLSCAASGRTFAYYVMGWYRPAPGKERQLVAAINRSDGSTSYADSVKGRFTISRDNAKNTVYLQMNSLKPEDTAVYYCAKSKPVGPYYYWGQGTQVTVSS”: “high polyreactivity”; “QVQLVESGGGLVQAGGSLRLSCAASGSIFPHNAMGWYRQAPGKERELVAAISWRDVITYYADSVKGRFTISRDNAKNTVYLQMNSLKPEDTAVYYCAAELRVYGVDYEYWGQGTQVTVSS”: “high polyreactivity”; “QVQLVESGGGLVQAGCSLRLSCAASGSTFSPNAMGWYRQAPGKERELVASIRIGGRTNYADSVKGRFTISRDNAKNTVYLQMNSLKPEDTAVYYCARRHYYSRFTVSKLSRYDYWGQGTQVTVSS”: “high polyreactivity”.
For “QVQLVESLGGLVQAGGRLRLSSAASGLIFPRNAMGWYRQAPGKERELVAVISRSGTTTYYADSVKGRFTISRDNAKKTVYFQMNSLIPEDTAVYYCASAPSHVYRARFYYWGQGTQVTVSS”, the “polyreactivity (PSR sort gate)” value was “high polyreactivity”.
For the sequence “QVQLVESGGGLVQAGGSLRLSCAASGRTFDIYAMGWYRQAHGKERELVAAISSGGSTYYADSVKGRFTISRDNAKNTVYLQMNSLKPEDTAVYYCAVRWYDQVSRRGIGYYWGQGTQVTVSS”, the “polyreactivity (PSR sort gate)” value is listed as “low polyreactivity”.
In the case of “QVQLVESGGGLVQAGGSLRLSCAASGRIFIVNAMGWYRQAPGKERELVAAISYRGGSTYYADSVKGRFTISRDNAKNTVYLQMNSLKPEDTAVYYCNTDGYIYRYRFDYWGQGTQVTVSS”, the “polyreactivity (PSR sort gate)” value is “low polyreactivity”.
Take “QVQLVESRGGLVQAGGSLRLSCAATGFTIYYYAMGWYRQAPGKERELVAAITGSGGSTYYADSVKGRFTISRDNAKNTVYLQMNSLKPEDTAVYYCARRYQVGWYYKYDYWGQGTQVTVSS”: the “polyreactivity (PSR sort gate)” value is reported as “high polyreactivity”.
“QVQLVESGAGLVQAGGSLRLSCAASGIILRYYALGWYRQAPGKERELVAAISSGGRTYYADSVKGRFTISRDNAKNPVNLLMNSLTPEDTEVYSCAADDTRGREEYDYWGQGTQVTGSS”: the “polyreactivity (PSR sort gate)” value was “high polyreactivity”.
Take “QVQIVESGGCLVQAGGSLRLICAASGNTFRWYDMGWYIQAPRKEREFVADITVRGGSTYYADSVKGRFTISRDNAKNTVYLQMNCLKPEDTAVYYCAVDFRRYPGFDYWGQGTQVTVSS”: the “polyreactivity (PSR sort gate)” value is “low polyreactivity”.
“QVQLVESGGGLVQAGGSLRLSCAASGRTFFPNAMGWYRPAPGKERELVAAITWRGGSTYYADSVKGRFTISRDNAKNTVYLQMNSLKPEDTAVYYCAARDNPRWPRYYRGRTYDYWGQGTQVTVSS”: the “polyreactivity (PSR sort gate)” value was “high polyreactivity”.
Next, “QVQLVESGGGFVQAGGSLPLSCAASGRTFGPYAMRWYRQAPGKERELVAAISSSDGSTYYADSVKGRFTISRDNAKNTVYLQMNSLKPEDTAVYYCNARYYLWSTTRWYGYDYWGQGTQVTVSS”: “high polyreactivity”; “QVQLVESGGGLVQAGGSHRLSCAASGRTFYYNAMGVYRQAPGKERELVAGITRSGSSTYYADSVKGRFTISRVNAKNTVYLQMNSLKPEDTAVYYCATRRSGYYSFYYWGQGTQVTVSS”: “high polyreactivity”; “QVQLVESWGGLVQAGCSLRLSCAASGRTFRSYAMGWYRQATGKERELVAAISRNGGRTYYADSVKGRFTMSRDNAKYTVYSQMNSLKPEDTAVYYCAAVGDFDVYYWGQATQVTVSS”: “high polyreactivity”.
On to “QVHLVQSGGGIVQAGGSLRLSCPASGSIFGYYAMGWYRQPRGKERELVAAITGGGRTYYADSVKGRFTISRDNAKNTVYLQMNSLKPEDTGVYYCTARSTSYRSYWRDYWGQGTHVTVSS”, for which the “polyreactivity (PSR sort gate)” value was “high polyreactivity”.
Turning to “QVQLVESGGGLVQAGGSLRLSCAASGSTFTNYAMGWYRQAPGKERELVAAISSSGGRTYYADSVKGRFTISRDNAKNTVYLQMNSLKPEDTAVYYCARVVRPSVGDYWGQGTQVTVSS”, the “polyreactivity (PSR sort gate)” value is on record as “high polyreactivity”.
As to “QVQLVESGGGLVQAGGGLRLSCAASGFTFYLYVMGWYRQAPGKERELVARISRSGGTTYYADSVKGRFTISRDNAKNTVYLQMNSLKPEDTAVYYCAARRYGVPPTYDYCGQGTQVTVSS”, the “polyreactivity (PSR sort gate)” value is “high polyreactivity”.
As to “QVQLVESGGGLVQSGGSLRLTCAASGSILWYNGMGWYSQAPGKERELVAAITSGGSTNYADSVKGRFTISRDNAKNTFYLHMNSLKPEDTEVYYCKARPYWFGSYGYWGQGTKVTVSS”, the “polyreactivity (PSR sort gate)” value is on record as “low polyreactivity”.
Next, “QVQLVESGGGLDQAGGSLRLSCDASGFIFVRYAMGWSRQAPGKERELVAGINSGGSTSYADSVKGRFTISRDNAKNTVYLQMNSLKPEDSAVYYCNADVYVGYEYEYWGQGTQVTVSS”: “low polyreactivity”.
“QVQLVESGGGLVQAGGSLRFSCAASGNIFVVYTMGWDRQAPGKERELVADITSIGTSTYYADSVKGRFTISRDNAKNTVYLQMNSLKPEDTAVYYCNKDGSVWGKYTEYYWGQGTQVTVAS”: the “polyreactivity (PSR sort gate)” value was “low polyreactivity”.
As to “QVQLVESGGGLVQAGGSLRLSCAASGIIFYVYAMGWYRQAPGKERELVATITRRDDSTYYADSVKGRFTISRDNAKNTVYLQMNSLKPEDTAVSYCNADFWLLSEYDYWGQGTQVTVSS”, the “polyreactivity (PSR sort gate)” value is “low polyreactivity”.
As to “QVQLVESGVGLVQAGGSLRLSCAASGSIFHINAMGWSRQAPGKERELEADISQRGGSTYYADSVKGRFTISRDNAKNTVYLQMNSLKPEDTAVYFCAVVHVFYAVSYFSFYTYDYWGQGTQVTLSS”, the “polyreactivity (PSR sort gate)” value was “low polyreactivity”.
As for “QVQLVESAGGLVQAGGSLRLSCAASGITFSYYTMGWYRQAPGKEREFVATIRRGGSTNYADSVKGRFTISRDNAKNTVYLQMNSLKPEDTAVYYCAADLRRNGWGFDYWGQGTQVTVSS”, the “polyreactivity (PSR sort gate)” value is reported as “high polyreactivity”.
For the sequence “QVQLVESGGGLVQAGGSLRLSCAASGLIFSRYTMGWYRQAPGKERELVAAISKTGSSTYYADSVKGRFTISRDNAKNTVYLQMNSLIPEDTAVYYCAARAYPGYYWGQGTQVTVSS”, the “polyreactivity (PSR sort gate)” value is “high polyreactivity”.
Regarding “QVQLVESGGGLVQAGGSLRLSCAASGRTLSVYAMGWYRQAPGKERELLAAITIRGGRTYYADSVKGRFTISRDNAKNTVYLQMNSLKPEDTAVYYCAAPPYVKMDYWGQGTQVTVSS”, the “polyreactivity (PSR sort gate)” value is given as “high polyreactivity”.
As for “QVQVVESVGGLVQAGGILRLSCAASGRTFRGNAMGWYRQAPGKERELVAAISSSGARTYYADSVKGRFTISRDNAKNTVYLQMNSLKPEDTAVYYCAAVYTDGALQGYDYWGQGTQVTVSS”, the “polyreactivity (PSR sort gate)” value is given as “low polyreactivity”.
As for “QVQLVESGGGLVQAGGSLRLSCAASGNTFYDYGMGWYRQAPGKERELVAGIDGSSTYYADSVKGRFTISRDNAKNTVYLQMNSLKPEDTAVYYCAAYVGSYVSYRAYPRIYYYWGQGTQVTLSS”, the “polyreactivity (PSR sort gate)” value was “low polyreactivity”.
Regarding “QFQHVESVGGLVQAGGSLRLSCAASGRIFPYYALGWYREAPGKERELVAAISQSDGSTYYADSVKGRFTISRDNAKNTVYLQMNSLKPEDTAVYYCAKRQASYTQHRKVRGDYWGQGPQVTVSS”, the “polyreactivity (PSR sort gate)” value is reported as “low polyreactivity”.
On to “QVQLVETGGGLVQAGGSHRLSCAASGYIFFGNAMGWYRQAPGKERELVASIRWRGTSTYYADSVKGRFTISRDNAKNTGYLHMNSLKPEDTAVYYCAADVVRSNFYGTFLYDYDYWGQGTQVTVSS”, for which the “polyreactivity (PSR sort gate)” value is recorded as “low polyreactivity”.
“QVQLVESGGALVQAGVSLRLSCAASGSIFRFYAMGWNKQAPGKERELVAAITSGGSTNYADSVKGRFTISRDNEKNTVYLQMNSLKPEDTAVFYCAAELVFFFIFDYWGQGTQVTVSS”: the “polyreactivity (PSR sort gate)” value is “low polyreactivity”.
As to “QVQLVESGGGLDQAGGSLRLSCAASGRTFIYNAMGWYRQAPGKEREFVAAITWSGATTRYADSVKGRFTISRDNAKNTVYLQMNSLKPEDTAVYYCAKGGFYYYGWRSSMDYWGQGTQVTVSS”, the “polyreactivity (PSR sort gate)” value is listed as “high polyreactivity”.
On to “QVQLVESGGGLVQAGGSLRLSCAASGIIFTSNTMGWYRQAPGKEREFVASINWNGSSTYADSVKGRFTISRDNAKNTVYLQMNSMKPEDTAVYYCNADYNRNSVQFSLYDYWGQGTQVTVSS”, for which the “polyreactivity (PSR sort gate)” value is on record as “low polyreactivity”.
As to “QLQLVESGGRLVQAAVSLRLSFAASGRTFYPYAMGWYRPAPGKERELVAAITSRGASTYYADSVKGRFTISRDNAKNTVYLQMNSLKPEDTAVYYCNSGRTYRRLGDYLGQGTQVTVSS”, the “polyreactivity (PSR sort gate)” value was “high polyreactivity”.
Next, “QVHLVESGGGLVQAGGSLRLRCAASGSIFLLYAMGWYRQPPGKGRELVAAITYSGGRTYADSVKGRFTISRDNAKNTGYLQMISLKPEDTAVNYCATDAPAPKYDYWGQGTQVTVSS”: “low polyreactivity”.
